Experimental data reported in IntAct's records for PubMed 20417604.

B1: Ataxin-1 (Homo sapiens), P54253 (parent)
chain: MKSNQERSNECLPPKKREIPATSRSSEEKAPTLPSDNHRVEGTAWLPGNPGGRGHGGGRHGPAGTSVELGLQQGIGLHKALSTGLDYSPPSAPRSVPVATTLPAAYATPQPGTPVSPVQYAHLPHTFQFIGSSQYSGTYASFIPSQLIPPTANPVTSAVASAAGATTPSQRSQLEAYSTLLANMGSLSQTPGHKAEQQQQQQQQQQQQHQHQQQQQQQQQQQQQQHLSRAPGLITPGSPPPAQQNQYVHISSSPQNTGRTASPPAIPVHLHPHQTMIPHTLTLGPPSQVVMQYADSGSHFVPREATKKAESSRLQQAIQAKEVLNGEMEKSRRYGAPSSADLGLGKAGGKSVPHPYESRHVVVHPSPSDYSSRDPSGVRASVMVLPNSNTPAADLEVQQATHREASPSTLNDKSGLHLGKPGHRSYALSPHTVIQTTHSASEPLPVGLPATAFYAGTQPPVIGYLSGQQQAITYAGSLPQHLVIPGTQPLLIPVGSTDMEASGAAPAIVTSSPQFAAVPHTFVTTALPKSENFNPEALVTQAAYPAMVQAQIHLPVVQSVASPAAAPPTLPPYFMKGSIIQLANGELKKVEDLKTEDFIQSAEISNDLKIDSSTVERIEDSHSPGVAVIQFAVGEHRAQVSVEVLVEYPFFVFGQGWSSCCPERTSQLFDLPCSKLSVGDVCISLTLKNLKNGSVKKGQPVDPASVLLKHSKADGLAGSRHRYAEQENGINQGSAQMLSENGELKFPEKMGLPAAPFLTKIEPSKPAATRKRRWSAPESRKLEKSEDEPPLTLPKPSLIPQEVKICIEGRSNVGK

Variants of: B1
Settings: with wdfy3_human WDFY3, Q8IZQ1
Chain of wdfy3_human WDFY3, Q8IZQ1 (Q8IZQ1 whole entry): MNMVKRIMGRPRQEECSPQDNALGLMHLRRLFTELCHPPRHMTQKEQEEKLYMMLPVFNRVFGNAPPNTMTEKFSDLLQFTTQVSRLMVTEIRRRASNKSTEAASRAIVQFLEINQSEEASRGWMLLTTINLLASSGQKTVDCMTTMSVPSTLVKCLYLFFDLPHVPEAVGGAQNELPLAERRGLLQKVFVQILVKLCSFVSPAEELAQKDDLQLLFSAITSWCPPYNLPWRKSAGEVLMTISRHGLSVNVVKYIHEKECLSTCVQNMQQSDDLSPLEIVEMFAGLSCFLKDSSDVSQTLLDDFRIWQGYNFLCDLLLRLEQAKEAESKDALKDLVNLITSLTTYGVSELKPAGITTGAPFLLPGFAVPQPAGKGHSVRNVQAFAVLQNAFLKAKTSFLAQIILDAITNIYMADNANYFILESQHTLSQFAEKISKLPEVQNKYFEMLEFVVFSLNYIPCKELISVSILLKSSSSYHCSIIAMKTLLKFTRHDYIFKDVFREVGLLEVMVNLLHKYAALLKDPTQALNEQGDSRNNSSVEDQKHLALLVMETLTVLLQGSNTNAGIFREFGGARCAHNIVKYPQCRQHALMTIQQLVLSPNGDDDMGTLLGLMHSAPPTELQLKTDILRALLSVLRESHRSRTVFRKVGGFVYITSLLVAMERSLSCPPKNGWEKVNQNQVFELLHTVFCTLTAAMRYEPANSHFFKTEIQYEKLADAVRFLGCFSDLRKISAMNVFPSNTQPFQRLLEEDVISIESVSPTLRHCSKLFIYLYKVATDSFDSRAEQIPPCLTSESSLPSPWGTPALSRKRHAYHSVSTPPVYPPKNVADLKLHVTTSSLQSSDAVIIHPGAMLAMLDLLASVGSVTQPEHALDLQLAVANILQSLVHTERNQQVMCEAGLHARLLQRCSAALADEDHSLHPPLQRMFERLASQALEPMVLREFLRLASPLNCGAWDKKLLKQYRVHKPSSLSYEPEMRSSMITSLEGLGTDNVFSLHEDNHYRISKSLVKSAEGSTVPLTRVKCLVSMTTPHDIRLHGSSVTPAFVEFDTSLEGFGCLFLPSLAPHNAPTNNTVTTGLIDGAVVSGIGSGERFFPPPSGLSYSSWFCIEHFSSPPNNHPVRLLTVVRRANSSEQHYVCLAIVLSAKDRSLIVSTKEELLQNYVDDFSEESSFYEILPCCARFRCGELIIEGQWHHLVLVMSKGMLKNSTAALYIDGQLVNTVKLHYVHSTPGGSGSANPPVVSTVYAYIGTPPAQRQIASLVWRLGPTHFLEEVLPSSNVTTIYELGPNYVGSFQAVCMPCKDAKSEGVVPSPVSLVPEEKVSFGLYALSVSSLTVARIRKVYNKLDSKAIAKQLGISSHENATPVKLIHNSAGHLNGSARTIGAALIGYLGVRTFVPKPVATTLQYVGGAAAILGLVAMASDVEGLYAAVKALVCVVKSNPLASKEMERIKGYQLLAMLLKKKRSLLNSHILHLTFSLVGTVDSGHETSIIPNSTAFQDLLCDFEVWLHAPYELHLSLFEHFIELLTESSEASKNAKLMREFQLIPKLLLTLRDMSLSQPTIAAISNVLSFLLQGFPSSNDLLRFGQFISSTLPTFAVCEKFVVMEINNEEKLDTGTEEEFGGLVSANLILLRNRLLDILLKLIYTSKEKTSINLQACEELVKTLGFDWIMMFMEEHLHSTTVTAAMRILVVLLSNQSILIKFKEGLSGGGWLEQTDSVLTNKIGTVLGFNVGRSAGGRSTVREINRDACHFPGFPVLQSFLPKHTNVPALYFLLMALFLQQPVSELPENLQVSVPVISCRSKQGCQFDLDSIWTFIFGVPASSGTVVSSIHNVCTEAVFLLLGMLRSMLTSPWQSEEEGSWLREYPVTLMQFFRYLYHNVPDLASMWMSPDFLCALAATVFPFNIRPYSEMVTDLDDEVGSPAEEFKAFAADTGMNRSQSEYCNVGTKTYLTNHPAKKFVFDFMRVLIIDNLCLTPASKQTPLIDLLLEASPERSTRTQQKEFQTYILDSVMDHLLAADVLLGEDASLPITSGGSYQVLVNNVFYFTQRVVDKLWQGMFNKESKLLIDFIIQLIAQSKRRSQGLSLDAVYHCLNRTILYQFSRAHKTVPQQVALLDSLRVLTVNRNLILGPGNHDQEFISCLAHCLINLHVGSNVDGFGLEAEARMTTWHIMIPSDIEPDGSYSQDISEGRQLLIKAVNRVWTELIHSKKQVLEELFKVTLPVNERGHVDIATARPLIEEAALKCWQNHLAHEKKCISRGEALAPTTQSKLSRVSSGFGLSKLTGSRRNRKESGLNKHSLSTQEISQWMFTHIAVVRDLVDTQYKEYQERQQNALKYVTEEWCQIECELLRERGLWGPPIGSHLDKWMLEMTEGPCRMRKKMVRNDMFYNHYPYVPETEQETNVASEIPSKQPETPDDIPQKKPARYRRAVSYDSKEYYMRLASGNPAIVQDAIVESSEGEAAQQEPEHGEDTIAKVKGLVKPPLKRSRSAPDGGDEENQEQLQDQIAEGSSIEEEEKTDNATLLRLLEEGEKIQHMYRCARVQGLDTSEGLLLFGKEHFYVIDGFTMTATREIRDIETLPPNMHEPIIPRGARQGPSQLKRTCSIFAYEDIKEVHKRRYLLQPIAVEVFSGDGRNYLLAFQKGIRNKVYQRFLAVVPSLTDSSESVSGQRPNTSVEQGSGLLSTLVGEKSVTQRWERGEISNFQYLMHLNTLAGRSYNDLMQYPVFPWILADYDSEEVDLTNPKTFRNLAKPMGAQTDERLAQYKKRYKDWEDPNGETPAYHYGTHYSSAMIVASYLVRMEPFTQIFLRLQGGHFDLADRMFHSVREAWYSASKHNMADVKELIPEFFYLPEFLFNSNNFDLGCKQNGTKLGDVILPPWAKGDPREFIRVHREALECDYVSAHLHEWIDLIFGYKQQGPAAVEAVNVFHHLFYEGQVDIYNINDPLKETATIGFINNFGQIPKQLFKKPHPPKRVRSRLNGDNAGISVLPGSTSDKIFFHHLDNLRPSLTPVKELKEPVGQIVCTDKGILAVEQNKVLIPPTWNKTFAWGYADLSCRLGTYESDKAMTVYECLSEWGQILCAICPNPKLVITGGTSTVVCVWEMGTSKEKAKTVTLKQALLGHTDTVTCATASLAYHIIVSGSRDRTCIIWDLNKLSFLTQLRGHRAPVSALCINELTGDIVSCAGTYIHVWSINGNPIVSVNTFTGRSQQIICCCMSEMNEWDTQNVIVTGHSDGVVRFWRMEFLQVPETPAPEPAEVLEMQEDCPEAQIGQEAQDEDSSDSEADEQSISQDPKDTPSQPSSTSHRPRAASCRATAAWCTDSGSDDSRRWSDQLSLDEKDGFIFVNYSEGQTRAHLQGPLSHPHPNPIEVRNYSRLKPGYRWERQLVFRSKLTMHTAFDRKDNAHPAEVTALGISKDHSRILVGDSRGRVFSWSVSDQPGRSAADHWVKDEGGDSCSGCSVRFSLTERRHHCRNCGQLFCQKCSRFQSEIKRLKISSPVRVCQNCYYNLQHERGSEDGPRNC
With K771T the “effect of a mutation on the interaction” value was “disrupting interaction”.
